Measured values as given in the supplement of paper PMC7125110.
± gives the standard error. For part of these data: Variants at the floor of the assay were thinned out.

B1: glmS ribozyme (parent)
chain: AUAAAAGCGCCAGAACUACAGAAAUGUAGUUGACGAGGAGGAGGUUUAUCGAAUUUUCGGCGGAUGCCUCCAAA

What was measured:
Details in all cases: with glucosamine-6-phosphate
[1] = variants of: B1; assay: kcat; higher = faster cleavage; RNA array
Procedure, shortened: (§1)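 Glucosamine-6-phosphate (40 μM to 10 mM) in HEPES/KCl/Mg(OAc)2 buffer was flowed over sequenced MiSeq chips, and tiles were imaged over ~14 h. Barcoded ribozyme variants there had been transcribed in situ by E. coli RNA polymerase and were tracked through a hybridised Cy3 probe at 37 °C. One- or two-exponential decay fits to per-tile medians, normalised to baseline and to non-cleaving reference variants, gave kobs. kcat and KM came from weighted Michaelis–Menten fits across concentrations.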

[2] = variants of: B1; assay: self-cleavage kobs at 40 uM GlcN6P; higher = faster cleavage; RNA array
Procedure, shortened: as §1

[3] = variants of: B1; assay: self-cleavage kobs at 640 uM GlcN6P; higher = faster cleavage; RNA array
Procedure, shortened: as §1

[4] = variants of: B1; assay: self-cleavage kobs at 2500 uM GlcN6P; higher = faster cleavage; RNA array
Procedure, shortened: as §1

[5] = variants of: B1; assay: self-cleavage kobs at 10000 uM GlcN6P; higher = faster cleavage; RNA array
Procedure, shortened: as §1

[6] = variants of: B1; assay: KM; higher = weaker cofactor use; RNA array
Procedure, shortened: as §1

[7] = variants of: B1; assay: self-cleavage kobs at 160 uM GlcN6P; higher = faster cleavage; RNA array
Procedure, shortened: as §1

Row | Variant | kcat [1] | self-cleavage kobs at 40 uM GlcN6P [2] | self-cleavage kobs at 640 uM GlcN6P [3] | self-cleavage kobs at 2500 uM GlcN6P [4] | self-cleavage kobs at 10000 uM GlcN6P [5] | KM [6] | self-cleavage kobs at 160 uM GlcN6P [7]
1 | U31C G37U | < 1e-05 s⁻¹ | < 1e-05 s⁻¹ | < 1e-05 s⁻¹ | – | – | – | –
2 | C61G U69G | 1.73e-05 ± 4.8e-06 s⁻¹ | – | – | – | – | – | –
3 | U54C U65C | 0.000618 ± 0.00021 s⁻¹ | – | 0.000249 ± 6.5e-05 s⁻¹ | 0.000743 ± 0.00016 s⁻¹ | 0.000465 ± 0.00013 s⁻¹ | – | –
4 | A14C A42G | 0.0097 ± 0.0025 s⁻¹ | 0.000181 ± 2e-05 s⁻¹ | 0.00154 ± 0.00023 s⁻¹ | 0.00494 ± 0.00075 s⁻¹ | 0.00788 ± 0.0011 s⁻¹ | 2690 ± 890 µM | 0.000475 ± 7.2e-05 s⁻¹
5 | A6U A53G | 0.000783 ± 0.00011 s⁻¹ | – | 5.15e-05 ± 9e-06 s⁻¹ | 0.000178 ± 2.2e-05 s⁻¹ | 0.000404 ± 8.1e-05 s⁻¹ | 8850 ± 1500 µM | –
6 | C11U U46G | 0.000268 ± 4.3e-05 s⁻¹ | – | 5.11e-05 ± 7.1e-06 s⁻¹ | 0.00018 ± 2.7e-05 s⁻¹ | 0.000204 ± 2.3e-05 s⁻¹ | 2460 ± 740 µM | –
7 | G32A G60A | < 1e-05 s⁻¹ | < 1e-05 s⁻¹ | < 1e-05 s⁻¹ | – | – | – | < 1e-05 s⁻¹
8 | G13C C71G | 2.45e-05 ± 2.8e-06 s⁻¹ | – | – | – | – | – | –
9 | G32U A53U | 0.000907 ± 0.00012 s⁻¹ | – | 0.000111 ± 6.5e-06 s⁻¹ | 0.000361 ± 2.5e-05 s⁻¹ | 0.000603 ± 3.5e-05 s⁻¹ | 4580 ± 950 µM | 1.91e-05 ± 5.9e-06 s⁻¹
10 | C68U U69C | 8.69e-05 ± 6.8e-06 s⁻¹ | – | – | 3.88e-05 ± 1.4e-05 s⁻¹ | 6.79e-05 ± 1.1e-05 s⁻¹ | 2850 ± 730 µM | –
11 | G41U | 0.00376 ± 0.0013 s⁻¹ | 0.000171 ± 1.9e-05 s⁻¹ | 0.00102 ± 9.3e-05 s⁻¹ | 0.00263 ± 0.00015 s⁻¹ | – | – | 0.000391 ± 6.3e-05 s⁻¹
12 | A39G | 0.0923 ± 0.019 s⁻¹ | 0.00154 ± 3.7e-05 s⁻¹ | 0.0174 ± 0.0013 s⁻¹ | 0.0472 ± 0.0047 s⁻¹ | 0.075 ± 0.0037 s⁻¹ | 2540 ± 580 µM | 0.00433 ± 0.00024 s⁻¹
13 | C58A C68A | 3.68e-05 ± 1.1e-05 s⁻¹ | – | 5.26e-05 ± 1.6e-05 s⁻¹ | 3.75e-05 ± 1.7e-05 s⁻¹ | – | – | 4.01e-05 ± 1.7e-05 s⁻¹
14 | A6U U65A | < 1e-05 s⁻¹ | – | – | – | – | – | –
15 | A42C U69C | 0.000251 ± 7e-05 s⁻¹ | – | 0.000126 ± 2.7e-05 s⁻¹ | 0.000165 ± 6.2e-05 s⁻¹ | 0.000346 ± 0.00013 s⁻¹ | – | –
16 | G29U G59A | 1.03e-05 ± 3.2e-06 s⁻¹ | < 1e-05 s⁻¹ | – | – | – | – | –
17 | G29U G40U | 0.000422 ± 3.9e-05 s⁻¹ | – | 0.00014 ± 1.5e-05 s⁻¹ | 0.00032 ± 4.6e-05 s⁻¹ | 0.000349 ± 4.9e-05 s⁻¹ | 1290 ± 220 µM | 4.21e-05 ± 1.1e-05 s⁻¹
18 | U30A A53G | 0.00645 ± 0.0027 s⁻¹ | 0.000256 ± 5.1e-05 s⁻¹ | 0.00196 ± 0.00055 s⁻¹ | 0.00301 ± 0.00096 s⁻¹ | 0.00929 ± 0.002 s⁻¹ | – | 0.000553 ± 0.00023 s⁻¹
